Data on 1 substance can be found in paper PMC12390655 (Viruses, 2025).

Assay [1] has as its target bipartite NLS (bpNLS) from the nucleoplasmin. Nature of the assay: native MS.
Assay [2] deals with eVP24–KPNA5-ΔIBB complex (human | Ebola virus) (UniProt Q05322). Nature of the assay: native MS.
Assay [3] concerns the target bipartite NLS (bpNLS) from the nucleoplasmin. Nature of the assay: fluorescence polarisation. A general note: In fluorescence polarisation assays a small probe gives low polarisation when free and higher when bound to something large.
Assay [4] addresses monopartite NLS peptide (mpNLS) from the SV40 large T antigen (SV40). The experiment in a line: fluorescence polarisation.

For orientation: stoichiometry N means a count of units in the complex or per binding partner. By Kd is commonly meant a measure of binding affinity in units of concentration. Lower therefore signals a tighter complex. As to “eVP24–KPNA5-ΔIBB complex (from UniProt Q05322 11-237)”, the stoichiometry N worked out at 1 in assay [1] and 2 in assay [2]. The Kd in assay [3] stood at 210 nM; in assay [4], 5.2 µM.
